Results from patent US20180311371A1 (Hoffmann-La Roche, published 2018).

Legend:
[1] = molecular target: T1, murine TPBG extracellular domain, huIgG1-Fc-His6 (murine); assay: ELISA; Fc-TPBG coated; (-) = no binding
T1 construct: also called Fc-TPBG (mo)

[2] = molecular target: T2, rat TPBG extracellular domain, huIgG1-Fc-His6 (rat); assay: ELISA; Fc-TPBG coated; mAb titrated from 1 µg/ml
T2 construct: also called Fc-TPBG (rt)

[3] = molecular target: T3, human TPBG extracellular domain, huIgG1-Fc-His6 (human); assay: ELISA; Fc-TPBG coated; mAb titrated from 1 µg/ml
T3 construct: also called Fc-TPBG (hu)

[4] = molecular target: T4, minipig TPBG extracellular domain, huIgG1-Fc-His (minipig); assay: ELISA; Fc-TPBG coated; mAb titrated from 1 µg/ml
T4 construct: also called Fc-TPBG (mp)

[5] = molecular target: T5, huTPBG (recombinant human TPBG immobilised on the Biacore chip) (human, UniProt Q13641 32-355, limits assumed); assay: SPR Biacore T200; huTPBG amine-coupled, Fab injected
T5 construct: also called human TPBG antigen
T5 sequence: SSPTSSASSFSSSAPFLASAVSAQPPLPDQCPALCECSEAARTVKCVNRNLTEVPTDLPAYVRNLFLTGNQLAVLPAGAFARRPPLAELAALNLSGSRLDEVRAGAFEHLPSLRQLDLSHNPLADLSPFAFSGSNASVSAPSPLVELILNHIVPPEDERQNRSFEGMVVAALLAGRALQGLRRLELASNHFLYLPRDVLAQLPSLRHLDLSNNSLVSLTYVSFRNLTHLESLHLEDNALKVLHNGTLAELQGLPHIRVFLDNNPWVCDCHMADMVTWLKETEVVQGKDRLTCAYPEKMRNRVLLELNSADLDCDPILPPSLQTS

[6] = molecular target: T6, human TPBG (trophoblast glycoprotein), full length, cell surface expressed (human, UniProt Q13641 32-420); assay: flow cytometry on SW620 clone 4 cells; ratio of MFI; replicate 1
T6 construct: On MCF7, H1975 and BxPC-3 tumour cells, on SW620 clone 4 and on CHO-K1 cells transfected with full length human TPBG; also called huTPBG; 5T4
T6 sequence: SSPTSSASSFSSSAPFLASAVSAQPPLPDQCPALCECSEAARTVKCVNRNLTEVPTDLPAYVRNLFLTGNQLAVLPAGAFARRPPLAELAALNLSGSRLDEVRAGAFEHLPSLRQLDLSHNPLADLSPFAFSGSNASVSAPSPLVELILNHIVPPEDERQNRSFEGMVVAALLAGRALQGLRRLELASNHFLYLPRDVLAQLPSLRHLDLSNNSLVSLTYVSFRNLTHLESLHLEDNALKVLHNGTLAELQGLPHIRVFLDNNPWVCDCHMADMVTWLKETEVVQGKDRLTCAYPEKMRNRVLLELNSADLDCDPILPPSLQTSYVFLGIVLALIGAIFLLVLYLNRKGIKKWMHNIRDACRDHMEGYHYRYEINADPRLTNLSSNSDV

[7] = molecular target: T6, human TPBG (trophoblast glycoprotein), …; assay: cell-based or functional assay
[8] = molecular target: T6, human TPBG (trophoblast glycoprotein), …; assay: cell-based or functional assay; remark: listed apart in the source
[9] = molecular target: T6, human TPBG (trophoblast glycoprotein), …; assay: cell-based or functional assay; remark: listed apart in the source
[10] = molecular target: T7, minipig TPBG, full length, cell surface expressed on CHO-K1 cells (minipig); assay: cell-based or functional assay
T7 chain: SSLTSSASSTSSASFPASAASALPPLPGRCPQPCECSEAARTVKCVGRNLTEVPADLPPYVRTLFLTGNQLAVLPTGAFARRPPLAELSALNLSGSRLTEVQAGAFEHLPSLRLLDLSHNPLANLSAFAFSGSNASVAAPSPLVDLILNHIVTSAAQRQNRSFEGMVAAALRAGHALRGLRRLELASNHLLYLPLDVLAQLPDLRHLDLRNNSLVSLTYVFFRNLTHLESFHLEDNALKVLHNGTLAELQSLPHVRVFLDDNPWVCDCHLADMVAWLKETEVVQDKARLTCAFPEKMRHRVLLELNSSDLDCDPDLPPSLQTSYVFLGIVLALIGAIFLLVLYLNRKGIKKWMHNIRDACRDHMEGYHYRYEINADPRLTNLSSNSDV

[11] = molecular target: T6, human TPBG (trophoblast glycoprotein), …; assay: cell-based or functional assay; remark: listed apart in the source
[12] = molecular target: T7, minipig TPBG, full length, cell surface …; assay: cell-based or functional assay
[13] = molecular target: T7, minipig TPBG, full length, cell surface …; assay: flow cytometry on CHO cells stably expressing minipig TPBG; Fab dilution series 0.01-20 µg/ml, PE-labelled anti-kappa secondary antibody
[14] = molecular target: T8, recombinant extracellular domain of minipig TPBG (Biacore analyte) (minipig); assay: SPR (Biacore T200): Fab captured on anti-huFab antibody, minipig TPBG injected for 120 s at 4.9-400 nM, dissociation 660 s
T8 chain: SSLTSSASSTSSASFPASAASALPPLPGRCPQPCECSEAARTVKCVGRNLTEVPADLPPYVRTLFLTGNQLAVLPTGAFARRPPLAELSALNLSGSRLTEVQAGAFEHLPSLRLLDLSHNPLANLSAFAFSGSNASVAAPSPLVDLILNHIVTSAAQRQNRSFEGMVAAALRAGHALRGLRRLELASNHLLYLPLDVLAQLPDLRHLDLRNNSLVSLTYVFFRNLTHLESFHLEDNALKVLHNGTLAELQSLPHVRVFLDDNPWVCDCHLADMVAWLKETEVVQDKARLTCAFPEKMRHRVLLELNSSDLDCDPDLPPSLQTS

[15] = molecular target: T6, human TPBG (trophoblast glycoprotein), …; assay: cell-based or functional assay; remark: listed apart in the source
[16] = molecular target: T6, human TPBG (trophoblast glycoprotein), …; assay: flow cytometry on SW620 clone 4 cells; ratio of MFI; replicate 2
[17] = molecular target: T2, rat TPBG extracellular domain, …; assay: ELISA; Fc-TPBG coated; (-) = no binding
[18] = molecular target: T9, cynomolgus TPBG extracellular domain, huIgG1-Fc-His6 (cynomolgus); assay: ELISA; Fc-TPBG coated; (-) = no binding
T9 construct: also called Fc-TPBG (cy)
T9 sequence (chain, as listed by the source limits assumed): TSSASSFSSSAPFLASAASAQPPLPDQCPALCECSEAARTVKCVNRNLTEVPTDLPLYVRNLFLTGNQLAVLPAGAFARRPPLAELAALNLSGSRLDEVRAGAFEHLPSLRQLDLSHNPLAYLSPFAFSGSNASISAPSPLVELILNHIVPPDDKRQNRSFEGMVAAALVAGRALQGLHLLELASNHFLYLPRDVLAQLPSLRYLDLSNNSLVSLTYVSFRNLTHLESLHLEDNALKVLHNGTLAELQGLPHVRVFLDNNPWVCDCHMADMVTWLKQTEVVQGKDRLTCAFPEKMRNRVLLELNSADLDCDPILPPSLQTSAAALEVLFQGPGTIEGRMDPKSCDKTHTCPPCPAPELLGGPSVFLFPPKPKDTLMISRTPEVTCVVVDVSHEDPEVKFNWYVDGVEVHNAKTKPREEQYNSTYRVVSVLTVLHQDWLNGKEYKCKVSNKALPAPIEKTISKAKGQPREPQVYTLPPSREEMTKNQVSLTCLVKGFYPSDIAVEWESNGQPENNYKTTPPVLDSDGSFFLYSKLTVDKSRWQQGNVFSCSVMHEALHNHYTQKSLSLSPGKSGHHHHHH

T1 sequence (chain, as listed by the source limits assumed): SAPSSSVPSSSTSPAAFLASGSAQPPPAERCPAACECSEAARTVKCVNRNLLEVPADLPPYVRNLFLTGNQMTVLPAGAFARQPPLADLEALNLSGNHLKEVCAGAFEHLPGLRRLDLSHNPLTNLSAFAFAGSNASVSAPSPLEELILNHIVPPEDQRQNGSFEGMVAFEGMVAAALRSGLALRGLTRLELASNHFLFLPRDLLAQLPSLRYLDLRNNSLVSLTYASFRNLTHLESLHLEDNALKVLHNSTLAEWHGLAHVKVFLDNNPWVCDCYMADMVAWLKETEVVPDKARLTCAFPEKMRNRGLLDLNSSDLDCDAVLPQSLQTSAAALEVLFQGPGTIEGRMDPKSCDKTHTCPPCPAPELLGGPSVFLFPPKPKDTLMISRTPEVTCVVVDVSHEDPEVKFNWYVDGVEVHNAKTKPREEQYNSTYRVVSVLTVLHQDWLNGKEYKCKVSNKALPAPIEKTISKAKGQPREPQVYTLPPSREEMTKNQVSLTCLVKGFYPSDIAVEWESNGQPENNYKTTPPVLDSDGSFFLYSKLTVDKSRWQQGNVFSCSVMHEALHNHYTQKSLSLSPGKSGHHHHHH
T2 sequence (chain, as listed by the source limits assumed): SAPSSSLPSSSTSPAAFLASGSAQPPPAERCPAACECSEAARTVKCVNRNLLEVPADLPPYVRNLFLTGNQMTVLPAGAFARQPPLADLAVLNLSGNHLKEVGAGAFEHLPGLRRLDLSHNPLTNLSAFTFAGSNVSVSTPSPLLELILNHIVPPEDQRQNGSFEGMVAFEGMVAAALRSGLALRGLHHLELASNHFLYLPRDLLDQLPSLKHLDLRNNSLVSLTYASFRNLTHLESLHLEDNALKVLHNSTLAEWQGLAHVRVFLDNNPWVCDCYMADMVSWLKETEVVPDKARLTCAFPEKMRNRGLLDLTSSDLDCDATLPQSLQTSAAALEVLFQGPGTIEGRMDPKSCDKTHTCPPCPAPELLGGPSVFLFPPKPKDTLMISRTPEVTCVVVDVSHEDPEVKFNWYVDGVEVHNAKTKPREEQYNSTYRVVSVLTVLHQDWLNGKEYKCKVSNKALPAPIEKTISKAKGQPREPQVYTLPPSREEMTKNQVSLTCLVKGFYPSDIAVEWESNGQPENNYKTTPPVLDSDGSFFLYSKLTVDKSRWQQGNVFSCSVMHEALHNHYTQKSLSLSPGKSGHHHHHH

B1: anti-TPBG antibody 091 (mAb) (antibody, V domains shown)
VH: EVHLLESGGGLVHPGGSLRLSCAASGFTFRSDAMHWVRQAPGKGLEWVSGVSGSGGSPYYADSVKGRFTISRDDSKTTLYLQMNSLRAEDTAVYYCATGGSIAGSYYYYPMDVWGQGTTVTVSS
VL: DIQMTQSPSSLSASVGDRVTITCQASQDISNYLNWYQQKPGKAPKLLIYAASTLQIGVPSRFSGSGSGTDFTFTISSLQPEDFATYYCQQANSFPLTFGGGTKVEIK
- binding result [1]: no binding (tested: titrated from 1 µg/ml)
- binding result [2]: binds
- binding result [3]: binds
- binding result [4]: binds

B2: prior art anti-TPBG antibody H8, Fab fragment (Fab, V domains shown)
VH: EVQLQQSGPDLVKPGASVKISCKASGYSFTGYYMHWVKQSHGKSLEWIGRINPNNGVTLYNQKFKDKAILTVDKSSTTAYMELRSLTSEDSAVYYCARSTMITNYVMDYWGQVTSVTVSS
VL: SIVMTQTPTFLLVSAGDRVTITCKASQSVSNDVAWYQQKPGQSPTLLISYTSSRYAGVPDRFIGSGYGTDFTFTISTLQAEDLAVYFCQQDYNSPPTFGGGTKLEIKR
notes: also called Fab(H8); Fab1
- Kd [5]: 0.00158 nM
- koff [5]: 2.17e-07 s⁻¹
- kon [5]: 137000 M⁻¹ s⁻¹
- Fold change pH 7.2 vs pH 5.5 [6]: 4.2 fold
- EC50 cytotoxicity, Fab-PE sandwich construct, H1975, replicate 1 [7]: 0.698 nM
- EC50 cytotoxicity, Fab-PE sandwich construct, H1975, replicate 2 [7]: 0.451 nM
- EC50 cytotoxicity, Fab-PE sandwich construct, H1975, replicate 3 [7]: 0.656 nM
- EC50 cytotoxicity, Fab-PE sandwich construct, MCF7 (comparison with A1-A3) [8]: 1.85 nM
- EC50 cytotoxicity, Fab-PE sandwich construct, MCF7 [9]: 1.25 nM
- fold lower potency on minipig TPBG cells than on human TPBG cells, sandwich construct [10]: ~100 fold
- EC50 cytotoxicity, Fab + anti-kappa-Fab-PE, CHO-K1/human TPBG, replicate 1 [11]: 0.41 nM
- EC50 cytotoxicity, Fab + anti-kappa-Fab-PE, CHO-K1/human TPBG, replicate 2 [11]: 0.52 nM
- EC50 cytotoxicity, Fab + anti-kappa-Fab-PE, CHO-K1/minipig TPBG, replicate 1 [12]: 48 nM
- EC50 cytotoxicity, Fab + anti-kappa-Fab-PE, CHO-K1/minipig TPBG, replicate 2 [12]: 45.9 nM
- binding result [13]: no binding (tested: 20 µg/ml)
- binding result [14]: no binding
- internalization after 1.0 h, MCF7 cells [15]: 61%
- internalization after 2.0 h, MCF7 cells [15]: 79%
- Fold change pH 7.2 vs pH 5.5 [16]: 6.8 fold

B3: anti-TPBG antibody 097 (mAb) (antibody, V domains shown)
VH: EVQLLESGGGLAQPGGSLRLSCAASGFTFNNDAMTWVRQAPGKGLEWVSAISGSGGSTYYADSVKGRFTISRDNSKNTLYLQMNSLRAEDTAVYYCAKGGSWGDWYYYFYPMDVWGQGTTVTVSS
VL: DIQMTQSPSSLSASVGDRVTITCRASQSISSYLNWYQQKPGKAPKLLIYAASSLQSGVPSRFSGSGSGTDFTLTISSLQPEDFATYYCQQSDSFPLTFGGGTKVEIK
- binding result [17]: no binding (tested: titrated from 1 µg/ml)
- binding result [18]: no binding (tested: titrated from 1 µg/ml)
- binding result [1]: no binding (tested: titrated from 1 µg/ml)
- binding result [3]: binds
- binding result [4]: binds
